Two molecules from publication PMC4280530, “Uniform Orientation of Biotinylated Nanobody as an Affinity Binder for Detection of Bacillus thuringiensis (Bt) Cry1Ac Toxin” (Toxins, 2014) can be followed below.

The target of the assay is T1, Cry1F toxin (Bacillus thuringiensis, strain not …, UniProt Q03746).
T1 construct: Cry1F toxin of Bacillus thuringiensis, member of the Cry1 family; Commercial toxin
Put plainly: ELISA. As to conditions: both partners purified. A general note: In an ELISA, binding on a coated surface is turned into a signal by an enzyme label.

T1 sequence (Q03746 whole entry): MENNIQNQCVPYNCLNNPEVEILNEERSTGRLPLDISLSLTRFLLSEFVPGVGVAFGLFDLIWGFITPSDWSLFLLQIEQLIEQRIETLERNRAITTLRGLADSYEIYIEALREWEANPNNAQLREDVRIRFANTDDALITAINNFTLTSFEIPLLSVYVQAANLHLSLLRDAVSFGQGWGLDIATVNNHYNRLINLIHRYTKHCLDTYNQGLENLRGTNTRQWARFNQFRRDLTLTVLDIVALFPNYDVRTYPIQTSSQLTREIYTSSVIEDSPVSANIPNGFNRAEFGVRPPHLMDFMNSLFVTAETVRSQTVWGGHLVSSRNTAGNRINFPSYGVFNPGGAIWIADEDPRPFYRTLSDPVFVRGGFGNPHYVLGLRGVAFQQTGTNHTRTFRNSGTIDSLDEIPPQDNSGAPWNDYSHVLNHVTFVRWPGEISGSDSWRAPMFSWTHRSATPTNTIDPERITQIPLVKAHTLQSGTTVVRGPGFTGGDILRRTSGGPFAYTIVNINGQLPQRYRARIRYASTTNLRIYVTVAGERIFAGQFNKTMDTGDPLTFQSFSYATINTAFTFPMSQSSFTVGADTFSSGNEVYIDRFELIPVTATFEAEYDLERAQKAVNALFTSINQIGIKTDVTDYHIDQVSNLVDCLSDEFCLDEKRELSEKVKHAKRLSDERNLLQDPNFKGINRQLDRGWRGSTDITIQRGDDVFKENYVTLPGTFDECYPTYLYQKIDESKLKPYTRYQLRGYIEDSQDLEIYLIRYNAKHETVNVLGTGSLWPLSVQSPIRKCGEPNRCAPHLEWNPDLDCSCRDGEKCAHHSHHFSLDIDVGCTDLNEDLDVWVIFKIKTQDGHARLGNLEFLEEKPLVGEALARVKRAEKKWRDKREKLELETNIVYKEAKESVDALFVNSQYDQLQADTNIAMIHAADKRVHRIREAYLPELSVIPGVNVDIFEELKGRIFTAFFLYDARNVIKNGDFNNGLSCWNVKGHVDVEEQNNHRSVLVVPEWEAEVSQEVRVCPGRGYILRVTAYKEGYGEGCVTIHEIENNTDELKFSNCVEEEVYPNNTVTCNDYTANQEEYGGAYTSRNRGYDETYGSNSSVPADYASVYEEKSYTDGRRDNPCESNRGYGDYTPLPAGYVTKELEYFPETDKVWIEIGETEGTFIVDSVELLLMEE

B1: anti-Cry1Ac nanobody Nb61 (VHH)
VHH: QVQLQESGGGSVQAGGSLRLSCEASENTYNSVYMAWFRQAPEKEREGVAVLSTGGGRTYYTDSVKGRFTISRDNAKNMVYLQMNSLKPDDTAMYYCAATYTGDSYGPSLYYLTPGRYEYWGQGTQVTVSS
notes: VHH from an immunised dromedary, in pMECS; HA tag is known from the detection with anti-HA tag antibody; also called Cry1Ac Nb61; source: E. coli WK6, periplasm, purified (Ni-NTA / His-Select IMAC); periplasmic extract in PE-ELISA
Turning to B1, the binding result is on record as “no binding (tested: 10 μg·mL^−1)”.

B2: anti-Cry1Ac nanobody Nb44 (VHH)
VHH: QVQLQESGGGSVQAGGSLRLSCATSGLTYSARITWFRQAPEKEREGVATFSTGSGSTGYADSVKGRFTISQDNAKNTLYLQMNNLKPEDTAMYYCAADTSTSWRDIVLVARYKYWGQGTQVTVSS
notes: VHH from an immunised dromedary, in pMECS; HA tag is known from the detection with anti-HA tag antibody; also called Cry1Ac Nb44; source: E. coli WK6, periplasm, purified (Ni-NTA / His-Select IMAC); periplasmic extract in PE-ELISA
For B2, the binding result was “no binding (tested: 10 μg·mL^−1)”.
